Results taken from paper doi:10.1101/2025.06.14.659678, “NanoBondy reacting through NeissLock anhydride allows covalent immune cell decoration” (bioRxiv, 2025).

Assays:
[1] = biological target: T1, recombinant fragment of the d1 and d2 domains of human CD45 linked to an AviTag (Homo sapiens, biotin (site-specific, on the AviTag)); experiment: ELISA; nanobodies coated on a plate, incubated with the indicated concentration of biotinylated CD45d1d2; colorimetric detection, absorbance at 450 nm; details: both partners purified
T1 construct: human CD45, extracellular domains d1 and d2; Glycosylated; Construct limits may be in the supplementary Methods; also called CD45d1d2; biotinylated human CD45 domains 1 and 2; source: Expi293F cells, purified
T1 chain: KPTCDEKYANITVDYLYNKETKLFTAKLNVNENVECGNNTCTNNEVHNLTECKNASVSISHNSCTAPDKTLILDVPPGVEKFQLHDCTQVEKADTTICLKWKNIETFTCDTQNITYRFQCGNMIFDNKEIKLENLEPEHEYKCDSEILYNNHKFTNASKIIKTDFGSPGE

[2] = biological target: T2, endogenous human CD45 at the cell-surface (Homo sapiens, UniProt P08575-4); experiment: flow cytometry on cells; nanobodies incubated with YTS or NK92 cells (CD45+) or Expi293F cells (CD45-); detected with anti-VHH-Alexa Fluor 647; details: one partner purified
T2 construct: human CD45 as expressed on NK cell-lines and CD8+ T cells; also called endogenous CD45; source: endogenous, on YTS and NK92 cells and on primary human CD8+ T cells
T2 sequence (P08575 26-1306): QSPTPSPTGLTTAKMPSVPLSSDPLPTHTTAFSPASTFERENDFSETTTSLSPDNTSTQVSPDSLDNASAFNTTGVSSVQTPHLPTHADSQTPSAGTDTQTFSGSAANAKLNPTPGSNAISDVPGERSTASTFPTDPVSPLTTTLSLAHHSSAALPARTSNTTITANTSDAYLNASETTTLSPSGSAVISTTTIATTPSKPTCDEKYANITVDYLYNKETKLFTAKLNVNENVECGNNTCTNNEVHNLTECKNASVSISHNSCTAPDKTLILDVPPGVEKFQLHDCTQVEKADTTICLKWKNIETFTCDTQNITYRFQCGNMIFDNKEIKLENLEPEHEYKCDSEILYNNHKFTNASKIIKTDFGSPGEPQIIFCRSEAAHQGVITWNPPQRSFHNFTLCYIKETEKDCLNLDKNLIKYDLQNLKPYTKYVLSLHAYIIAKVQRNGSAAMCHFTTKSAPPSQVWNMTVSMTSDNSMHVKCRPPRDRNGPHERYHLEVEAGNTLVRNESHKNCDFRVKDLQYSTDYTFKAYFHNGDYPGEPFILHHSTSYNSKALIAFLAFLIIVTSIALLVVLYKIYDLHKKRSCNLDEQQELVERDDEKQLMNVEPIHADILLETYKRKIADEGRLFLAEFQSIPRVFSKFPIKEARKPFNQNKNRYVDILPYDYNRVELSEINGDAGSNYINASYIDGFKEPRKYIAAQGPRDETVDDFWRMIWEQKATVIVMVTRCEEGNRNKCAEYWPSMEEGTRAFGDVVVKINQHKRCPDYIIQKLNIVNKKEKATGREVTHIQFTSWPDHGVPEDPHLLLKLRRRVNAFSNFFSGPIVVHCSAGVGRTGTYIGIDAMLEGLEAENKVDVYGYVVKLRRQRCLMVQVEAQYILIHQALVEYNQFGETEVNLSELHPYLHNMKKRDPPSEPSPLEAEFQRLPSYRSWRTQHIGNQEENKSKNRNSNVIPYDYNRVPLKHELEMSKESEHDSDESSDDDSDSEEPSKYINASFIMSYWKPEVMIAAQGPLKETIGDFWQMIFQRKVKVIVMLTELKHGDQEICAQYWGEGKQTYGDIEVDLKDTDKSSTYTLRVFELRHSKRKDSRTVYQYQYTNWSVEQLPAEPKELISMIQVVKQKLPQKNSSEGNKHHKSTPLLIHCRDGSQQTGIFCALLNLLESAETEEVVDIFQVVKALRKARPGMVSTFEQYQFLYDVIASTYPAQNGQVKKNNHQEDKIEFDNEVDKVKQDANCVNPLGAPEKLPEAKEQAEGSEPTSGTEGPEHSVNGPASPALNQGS

- binding result [1]: binds
- binding result [2]: binds
B1: anti-CD45 nanobody 2H5 with C-terminal SpyTag003 (VHH)
VHH: QVQLQESGGGLVQTGGSLTLSCVASGGTFSSYAMGWFRQAPGKEREFVAAIGGSGDSTYYADSVKGRFTISRDNAKNSVYLQMNSLKPEDTAVYYCQADPTMFHKLYYGINPNEYDYWGQGTLVTVSS
notes: constructs are in the supplementary Methods; also called 2H5 nanobody
